1 substance from paper doi:10.1101/2024.03.15.585200 can be followed below.

In the assay the target is Toxoplasma gondii ABCB7 homolog (TGGT1_269000) (Toxoplasma gondii). As to the kind of experiment: native gel or EMSA. On the technique in general: Mobility shift assays separate free from complexed probe on a gel.

For orientation: stoichiometry N means a count of units in the complex or per binding partner. Regarding “Toxoplasma gondii ABCB7 homolog (TGGT1_269000) (natural protein)”, the stoichiometry N turned out to be 2.
